The results in this text go back to US20250144228A1, “NANOBODY-DRUG ADDUCTS AND USES THEREOF” (priority 2022, published 2025).

Residue numbers refer to the chain shown, from its start.

For test [1], the system named is P. falciparum merozoite surface protein 1 (MSP-1) subunits p83, p38, p42. Briefly: ELISA of biotinylated VHHs on plate-bound MSP-1 subunits. The test is classed as binding, Plasmodium falciparum. The following applies: streptavidin-HRP and TMB. The procedure:
(§1) FIGS. 13A-13D: VHH nanobodies bind specifically to Plasmodium falciparum: merozoite surface protein 1 (MSP-1). FIG. 13A: Schematic of the PfMSP-1 pro-peptide and the four inclusive subunits: p83, p30, p38, and p42. FIG. 13B: Purified […] B4, anti-p38 B8, anti-p42 A6, and anti-p42 G11 VHHs were biotinylated and these VHHs were incubated with plate bound subunits proteins as indicated. Binding ELISA was detected by using streptavidin-HRP and tetramethylbenzidine (TMB). Data are represented as optical density (OD). Error bars show SEM. FIG. 13C: Western blot of VHHs against the three PfMSP-1 subunits, the full length p190 pro-peptide, and some 3D7 lysates from −38-44 hour 3D7 schizonts. FIG. 13D: Flow cytometry on synchronized ˜38-44 hour 3D7 schizonts using fluorescently (Cy5) labeled VHHs.
(§2) Purified VHH nanobodies were biotinylated and tested for specificity toward isolated MSP-1 subunits. Anti-p83 B4, anti-p38 B8, anti-p42 A6, and anti-p42 G11 VHHs were each incubated with plate-bound p83, p38, p42, and p42, and binding to the plates was detected by an enzyme-linked immunoassay (ELISA) using streptavidin-horseradish peroxidase (HRP) and tetramethylbenzidine (TMB). […] Finally, purified VHHs were tested against live ˜38-44 hour 3D7 schizonts in a flow cytometry assay.
Background: In an ELISA, binding on a coated surface is turned into a signal by an enzyme label.

The test system of test [2] is PfMSP-1 subunits, full length p190 pro-peptide. The test is classed as binding, Plasmodium falciparum. How it is done:
as §1, with “FIG.” for “FIGS. 13A-13D: VHH nanobodies bind specifically to Plasmodium falciparum: merozoite surface protein 1 (MSP-1). FIG.”
as §2

For test [3], the system named is purified MICA*009 antigen in whole cell lysate. As to the kind of experiment: Immunoblot with biotinylated anti-MICA nanobodies. Particulars: 1 μg/mL, streptavidin-HRP. The class given is binding, human.
The next test has as its target MICA*008 (Homo sapiens, UniProt Q29983, C59Y/G229S/K148E/K196E/M152V/Q274R/S238T/T236I/T47A/W233R). The class given is binding.
The next test relates to MICA*009. The test is classed as binding, human.
In another test the target is MICA*002 (Homo sapiens, UniProt Q29983, K148E/T47A/W37G). The class given is binding.
The target of test [4] is T1, MICA-transfected B16F10 cells (Homo sapiens, UniProt Q29983).
T1 construct: expressed in transfected cells; host or cells: B16F10 mouse melanoma cells
T1 sequence (Q29983 24-383): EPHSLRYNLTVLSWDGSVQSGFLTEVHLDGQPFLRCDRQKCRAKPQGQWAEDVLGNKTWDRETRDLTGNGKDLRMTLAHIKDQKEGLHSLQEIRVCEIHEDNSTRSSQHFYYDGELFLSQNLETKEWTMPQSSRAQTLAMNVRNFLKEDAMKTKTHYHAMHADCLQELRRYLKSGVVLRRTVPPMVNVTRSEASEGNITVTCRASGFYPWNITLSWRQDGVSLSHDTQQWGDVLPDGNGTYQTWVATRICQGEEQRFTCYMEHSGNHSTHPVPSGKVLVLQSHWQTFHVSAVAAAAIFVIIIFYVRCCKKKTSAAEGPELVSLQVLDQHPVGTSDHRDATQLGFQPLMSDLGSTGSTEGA
As to the kind of experiment: Flow cytometry of transfected B16F10 melanoma cells. The class given is binding. The following applies: biotinylated, streptavidin-PE. From the text: (§3) FIGS. 17A-17E: Development of MHC class I polypeptide-related sequence A (MICA)-specific nanobodies. FIG. 17A: Comparison of amino acid sequences of 9 MICA-specific nanobodies that were identified and cloned into a pHen6 expression vector. FIG. 17B: Immunoblots showing specific binding of biotinylated A1 and H3 anti-MICA nanobody clones for purified MICA*009 antigen in whole cell lysate. FIG. 17C: Quantification of ELISA cross-competition assays to determine binding epitopes for anti-MICA nanobodies. A decrease in intensity measured at 450 nm as compared to a single nanobody alone is indicative of binding to the same epitope. Cross-competition is shown for A1 (left) and H3 (right) anti-MICA nanobody clones. FIG. 17D: Quantification of anti-MICA nanobody binding to MICA allelic products as determined by ELISA. A significant increase in intensity measured at 450 nm as compared to uncoated ELISA control is indicative of binding. FIG. 17E: Flow cytometry of B16F10 cells transfected with empty vector, MICA, or MHC class I polypeptide-related sequence B (MICB) using A1 and H3 anti-MICA nanobody clones.
(§4) To further assess whether the isolated anti-MICA VHH nanobodies would bind to MICA on the surface of cells, A1 and H3 nanobody clones were generated against soluble, recombinant MICA*009 and cell binding was assessed by flow cytometry. Binding was assessed using B16F10 melanoma cells transfected to express either MICA or MICB, or an empty vector (EV) as a negative control. Biotinylated A1 and H3 nanobodies were labeled with streptavidin-phycoerythrin (PE) and used for cytofluorimetry of transfected B16F10 cells.

Test [5] concerns the target T2, MICB-transfected B16F10 cells (Homo sapiens, UniProt Q29980).
T2 construct: expressed in transfected cells; host or cells: B16F10 mouse melanoma cells
T2 sequence (Q29980 23-383): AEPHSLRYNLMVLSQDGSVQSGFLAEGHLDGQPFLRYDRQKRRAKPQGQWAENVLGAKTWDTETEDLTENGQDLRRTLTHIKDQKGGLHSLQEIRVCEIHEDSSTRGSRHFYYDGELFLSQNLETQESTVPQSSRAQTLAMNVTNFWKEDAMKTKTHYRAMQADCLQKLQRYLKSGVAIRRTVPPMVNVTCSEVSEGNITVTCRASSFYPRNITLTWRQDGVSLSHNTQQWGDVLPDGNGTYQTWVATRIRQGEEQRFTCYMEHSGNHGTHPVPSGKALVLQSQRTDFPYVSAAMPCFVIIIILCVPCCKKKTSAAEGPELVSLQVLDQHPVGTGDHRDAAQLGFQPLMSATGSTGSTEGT
The test is described as above. The class given is binding. The following applies: biotinylated, streptavidin-PE.
Source text: as §3, §4

In test [6] the test system is empty vector (EV)-transfected B16F10 cells. The test is classed as binding. The following applies: biotinylated, streptavidin-PE.
Test [7] deals with influenza A hemagglutinin.

Sequence of MICA*002 (Q29983 24-307 W37G/T47A/K148E): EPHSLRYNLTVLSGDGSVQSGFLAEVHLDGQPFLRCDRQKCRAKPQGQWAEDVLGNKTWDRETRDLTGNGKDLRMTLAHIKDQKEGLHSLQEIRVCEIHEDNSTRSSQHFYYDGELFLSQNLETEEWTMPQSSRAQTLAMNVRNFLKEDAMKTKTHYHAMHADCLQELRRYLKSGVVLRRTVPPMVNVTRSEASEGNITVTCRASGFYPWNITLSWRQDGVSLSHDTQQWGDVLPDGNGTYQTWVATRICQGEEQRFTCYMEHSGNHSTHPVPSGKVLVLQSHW
Sequence of MICA*008 (Q29983 24-307 T47A/C59Y/K148E/M152V/K196E/G229S/W233R/T236I/S238T/Q274R): as the sequence (Q29983 24-307 W37G/T47A/K148E) above, with G14W, C36Y, M129V, K173E, G206S, W210R, T213I, S215T, Q251R counted along it

B1: anti-p42 A6: VHH specific for P. falciparum MSP-1 p42, SEQ ID NO: 7 (protein)
VHH: QVQLVESGGGLVQAGGSLRLSCAASARTFSYYGAAWFRQAPGKEREFVAAVSWNGDDTYYADSVKGRFTISRDNTKNTVSLQMNALKPEDTAVYYCEAAAYGRDWRQSANYVYWGQGTQVTVSSLPETGGHHHHHH
For B1, the “binding to plate-bound MSP-1 subunits (ELISA)” value in test [1] is listed as “bind specifically to one subunit”. Further, the “binding to MSP-1 subunits and pro-peptide p190 (gel electrophoresis / Western blot)” value in test [2] is “bind to one subunit of MSP-1 and to the MSP-1 pro-peptide (p190), but not to any other subunit”.

B2: H3: VHH specific for MICA, SEQ ID NO: 24 (protein)
VHH: MAQVQLVETGGGLVQAGGSLRLSCAASGRTFSSYAMGWFRQAPGKEREFVAGISWSGGSTYYGDSVKGRFTISRDNAKNTVYLLMNSLKPEDTAVYYCAADLVRSYGSSWPSLFQFRNPEDVQDGMDYWGKGTLVTVSSGGLPETGGHHHHHH
In the case of B2, in test [3], the “luminescent signal on immunoblots” value is “strong and specific luminescent signal”. The “binding to MICA variant (ELISA)” value is reported as “observed to bind” with MICA*008, “observed to bind” in the test with MICA*009 and “not observed to bind” with MICA*002. Also, the entries for the “staining of transfected cells” value in test [4], in [5] and in test [6] were “robust staining”, “neither nanobody clone stained” and “neither nanobody clone stained”, respectively.

B3: VHHkappa-SD36 conjugated through click chemistry: SD36-azide conjugated to VHHkappa-DBCO through copper-free click reaction (protein)
VHH 1: QVQLVESGGGWVQPGGSLRLSCAASGFTFSDTAMMWVRQAPGKGREWVAAIDTGGGYTYYADSVKGRFTISRDNAKNTLYLQMNSLKPEDTARYYCAKTYSGNYYSNYTVANYGTTGRGTLVTVSSGG
VHH 2: EVQLVESGGGLVQAGGSLKLSCAASGRTYAMGWFRQAPGKEREFVAHINALGTRTYYSDSVKGRFTISRDNAKNTEYLEMNNLKPEDTAVYYCTAQGQWRAAPVAVAAEYEFWGQGTQVTVSSGG
In the case of B3, in test [7], the “affinity for influenza A hemagglutinin, in words” value is on record as “low nanomolar” and the “affinity relative to genetically conjugated VHHkappa-SD36” value was “higher affinity”.

B4: genetically fused VHHkappa-SD36: VHHkappa N-terminally linked to SD36 by (GGGGS)3 linker, SEQ ID NO: 5 (protein)
chain: QVQLVESGGGWVQPGGSLRLSCAASGFTFSDTAMMWVRQAPGKGREWVAAIDTGGGYTYYADSVKGRFTISRDNAKNTLYLQMNSLKPEDTARYYCAKTYSGNYYSNYTVANYGTTGRGTLVTVSSAAAGGGGSGGGGSGGGGSEVQLVESGGGLVQAGGSLKLSCAASGRTYAMGWFRQAPGKEREFVAHINALGTRTYYSDSVKGRFTISRDNAKNTEYLEMNNLKPEDTAVYYCTAQGQWRAAPVAVAAEYEFWGQGTQVTVSSGGLPETGGHHHHHH
Turning to B4, the “affinity for influenza A hemagglutinin, in words” value in [7] is given as “low nanomolar”.

B5: A1: VHH specific for MICA, SEQ ID NO: 19 (protein)
VHH: MAQVQLVESGGGLVQPGGSLRLSCAASGFTLDYYDIGWFRQAPGKEREGVSCITSSDGSTYYADSVKGRFTISRDNAKNTVYLQMNSLKPEDTAVYYCAADCTKPQWKSKTEAWGQGTQVTVSSGGLPETGGHHHHHH
With B5, in test [3], the “luminescent signal on immunoblots” value is “strong and specific luminescent signal”. In addition, the “binding to MICA variant (ELISA)” value is given as “observed to bind” with MICA*008, “observed to bind” in the test on MICA*009 and “not observed to bind” with MICA*002. Also, the “staining of transfected cells” value in [4] is “robust staining”; in test [5] it was “neither nanobody clone stained”; in test [6] it was “neither nanobody clone stained”.

B6: anti-p42 G11: VHH specific for P. falciparum MSP-1 p42, SEQ ID NO: 16 (protein)
VHH: QVQLVETGGGLVQAGGSLRLSCVVSGRSLILYGMGWFRQAPGKEREFVAGIVWNGGWTYYADSVKGRFTISRDTAKNTVYLQMNSLKPEDTAVYSCAAGPGDGRRRVAPAEYNYWGQGTQVTVSSLPETGGHHHHHH
B6: the “binding to plate-bound MSP-1 subunits (ELISA)” value in [1] is “bind specifically to one subunit”. Moreover, in test [2], the “binding to MSP-1 subunits and pro-peptide p190 (gel electrophoresis / Western blot)” value is “bind to one subunit of MSP-1 and to the MSP-1 pro-peptide (p190), but not to any other subunit”.

B7: B11: VHH specific for MICA, SEQ ID NO: 20 (protein)
VHH: MAQVQLVETGGGLVQPGGSLRLSCAASGFTLDYYAIGWFRQAPGKEREGVSCITSDGNTYYADSVKGRFTISRDNAKNTVYLQMNSLKPEDTAVYYCAADCLSSTWRTNAYLGQGTQVTVSSGGLPETGGHHHHHH
On to B7, for which the “binding to MICA variant (ELISA)” value in the test with MICA*008 is “observed to bind”; in the test with MICA*009, “observed to bind”; in the test with MICA*002, “not observed to bind”.

B8: E9: VHH specific for MICA, SEQ ID NO: 23 (protein)
VHH: B7 VHH with D32E, Y33H, R47Q, N58D, T105N, N109S, L112W, G113A
Take B8: the “binding to MICA variant (ELISA)” value with MICA*008 was “observed to bind”; in the test on MICA*009, “observed to bind”; with MICA*002, “not observed to bind”.
